# Results reported in IntAct's records for PubMed 16236155.
# B1: ADP-ribosylation factor 3 (Arabidopsis thaliana (Mouse-ear cress)), P40940 (parent)
# chain: MGILFTRMFSSVFGNKEARILVLGLDNAGKTTILYRLQMGEVVSTIPTIGFNVETVQYNNIKFQVWDLGGQTSIRPYWRCYFPNTQAVIYVVDSSDTDRIGVAKEEFHAILEEDELKGAVVLIFANKQDLPGALDDAAVTEALELHKIKSRQWAIFKTCAVKGEGLFEGLDWLSNTLKSGSG
# partner: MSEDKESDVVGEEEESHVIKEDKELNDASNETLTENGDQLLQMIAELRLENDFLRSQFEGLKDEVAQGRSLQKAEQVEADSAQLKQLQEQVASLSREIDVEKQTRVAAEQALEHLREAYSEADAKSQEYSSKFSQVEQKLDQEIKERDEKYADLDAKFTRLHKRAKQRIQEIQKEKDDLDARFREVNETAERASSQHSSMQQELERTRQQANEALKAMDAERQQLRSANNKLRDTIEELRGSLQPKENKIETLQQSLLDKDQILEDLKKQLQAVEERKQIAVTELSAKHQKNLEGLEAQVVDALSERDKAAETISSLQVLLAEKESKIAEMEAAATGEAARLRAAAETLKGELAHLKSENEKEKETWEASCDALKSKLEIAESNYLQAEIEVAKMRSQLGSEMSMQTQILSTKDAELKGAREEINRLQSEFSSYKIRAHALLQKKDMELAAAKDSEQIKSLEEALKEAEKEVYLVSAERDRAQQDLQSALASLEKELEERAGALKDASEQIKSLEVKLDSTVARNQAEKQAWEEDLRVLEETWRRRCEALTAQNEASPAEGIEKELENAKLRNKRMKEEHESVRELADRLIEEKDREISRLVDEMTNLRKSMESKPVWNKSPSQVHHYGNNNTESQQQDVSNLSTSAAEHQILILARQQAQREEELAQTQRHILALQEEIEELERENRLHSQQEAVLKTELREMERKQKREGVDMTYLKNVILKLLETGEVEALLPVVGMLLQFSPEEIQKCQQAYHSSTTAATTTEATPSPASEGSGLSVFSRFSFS
# B2: Protein GRIP (Arabidopsis thaliana (Mouse-ear cress)), Q8S2T0 (parent)
# chain: B1 partner
# partner: B1 chain
# Variants of: B1
# Conditions: with grip_arath GRIP, Q8S2T0
row,effect of a mutation on the interaction,Variant
1,disrupting interaction,T31N

# Variants of: B1
# Conditions: with grip_arath GRIP
row,effect of a mutation on the interaction,Variant
1,causing an interaction,Q71L

# Variants of: B2
# Conditions: with arf3_arath ARF3, P40940
row,effect of a mutation on the interaction,Variant
1,decreasing interaction,Y717A
